These results are taken from FireProtDB (doi:10.1002/cbic.201402128).

As usually defined, the Tm is the temperature at the midpoint of the melting transition.

The chains are these.
B1: Haloalkane dehalogenase, D4Z2G1 (parent)
chain: MSLGAKPFGEKKFIEIKGRRMAYIDEGTGDPILFQHGNPTSSYLWRNIMPHCAGLGRLIACDLIGMGDSDKLDPSGPERYAYAEHRDYLDALWEALDLGDRVVLVVHDWGSALGFDWARRHRERVQGIAYMEAIAMPIEWADFPEQDRDLFQAFRSQAGEELVLQDNVFVEQVLPGLILRPLSEAEMAAYREPFLAAGEARRPTLSWPRQIPIAGTPADVVAIARDYAGWLSESPIPKLFINAEPGALTTGRMRDFCRTWPNQTEITVAGAHFIQEDSPDEIGAAIAAFVRRLRPA

The variants in this series derive from B1. The conditions noted are these: Sphingobium indicum (strain DSM 16413 / CCM 7287 / MTCC 6362 / UT26 / NBRC 101211 / UT26S); pH 7.5; Thermal; fluorescence; Na-Hepes 50 mM; reversible: no; structure 1MJ5; whole UniProt chain shown.

Where “and” joins values, the source holds several entries; their conditions need not be identical. Equal values may be shown once.

Turning to A269P, the Tm stood at 50 °C and the “change of melting temperature, mutant - wild type (higher = more stable)” value (from here on “change of melting temperature, mutant”) is -1 °C.
For E192L, the Tm turned out to be 51.5 °C and the “change of melting temperature, mutant” value was 0.5 °C.
E192R: the Tm amounted to 53.5 °C and the “change of melting temperature, mutant” value stood at 2.5 °C.
Take E192K: the Tm worked out at 54 °C and the “change of melting temperature, mutant” value was found to be 3 °C.
On the same counts, the results for T264Q are 50 °C and -1 °C.
On the same counts, the results for T264L are 50.5 °C and -0.5 °C.
On the same counts, the results for D68N are 50.5 °C and -0.5 °C.
Turning to D68L, the Tm amounted to 49.5 °C and the “change of melting temperature, mutant” value was -1.5 °C.
Turning to D68H, the Tm was 52 °C and the “change of melting temperature, mutant” value came to 1 °C.
On to R254L, for which the Tm was 49.5 °C and the “change of melting temperature, mutant” value was -1.5 °C.
For the variant D149K, the Tm stood at 67.5 °C and the “change of melting temperature, mutant” value was 16.5 °C.
D149Q: the Tm was 62 °C and the “change of melting temperature, mutant” value stood at 11 °C.
For the variant L248W, the Tm was found to be 62 °C and the “change of melting temperature, mutant” value turned out to be 11 °C.
L248F: the Tm came to 61.5 °C and the “change of melting temperature, mutant” value stood at 10.5 °C.
In the case of A197P, the Tm is 52.5 °C and the “change of melting temperature, mutant” value was 1.5 °C.
As to D226K, the Tm amounted to 50.5 °C and the “change of melting temperature, mutant” value was -0.5 °C.
As to V103I, the Tm is 51 °C and the “change of melting temperature, mutant” value is 0 °C.
Take G229R: the Tm amounted to 51.5 °C and the “change of melting temperature, mutant” value came out at 0.5 °C.
In the case of G229E, the Tm came out at 51.5 °C and the “change of melting temperature, mutant” value was found to be 0.5 °C.
G229Q: the Tm was found to be 54 °C and the “change of melting temperature, mutant” value was found to be 3 °C.
In the case of G229T, the Tm is 51.5 °C and the “change of melting temperature, mutant” value was determined as 0.5 °C.
On the same counts, the results for G229D are 51.5 °C and 0.5 °C.
On to G229A, for which the Tm was 51.5 °C and the “change of melting temperature, mutant” value turned out to be 0.5 °C.
In the case of G229N, the Tm stood at 51.5 °C and the “change of melting temperature, mutant” value amounted to 0.5 °C.
Taken in the same sequence, the figures for G229S were 52 °C and 1 °C.
Consider A133V, for which the Tm was determined as 51 °C and the “change of melting temperature, mutant” value amounted to 0 °C.
As for V106C G114C, the Tm was determined as 50 °C and the “change of melting temperature, mutant” value turned out to be 1 °C.
On to S41Q, for which the Tm came out at 49 °C and the “change of melting temperature, mutant” value is -2 °C.
In the case of A196C A200C, the midpoint of thermal melting (Tm) is 48.5 °C and 46 °C; the “change of melting temperature, mutant” value is -2.5 °C and -3 °C and -0.5 °C.
Take A271I: the Tm was 60.5 °C and the “change of melting temperature, mutant” value came to 9.5 °C.
On the same counts, the results for A271V are 62 °C and 11 °C.
C61P: the Tm was found to be 50.5 °C and the “change of melting temperature, mutant” value was -0.5 °C.
E244I: the Tm was 50 °C and the “change of melting temperature, mutant” value is -1 °C.
In the case of E244V, the Tm was 50.5 °C and the “change of melting temperature, mutant” value is -0.5 °C.
Taken in the same sequence, the figures for Q172K were 61.5 °C and 10.5 °C.
Take S42A: the Tm is 49.5 °C and the “change of melting temperature, mutant” value was -1.5 °C.
For the variant A185P, the Tm is 50.5 °C and the “change of melting temperature, mutant” value was -0.5 °C.
As for A200P, the Tm was determined as 50.5 °C and the “change of melting temperature, mutant” value was -0.5 °C.
On to T249L, for which the Tm is 62.5 °C and the “change of melting temperature, mutant” value came out at 11.5 °C.
Regarding T249V, the Tm came out at 60 °C and the “change of melting temperature, mutant” value stood at 9 °C.
On the same counts, the results for T249M are 60.5 °C and 9.5 °C.
On the same counts, the results for A129V are 50 °C and -1 °C.
For the variant R101H, the Tm worked out at 51 °C and the “change of melting temperature, mutant” value came out at 0 °C.
As to A95H, the Tm was 50.5 °C and the “change of melting temperature, mutant” value is -0.5 °C.
Take S183D: the Tm stood at 50 °C and the “change of melting temperature, mutant” value was -1 °C.
On the same counts, the results for D147Y are 65 °C and 14 °C.
In the case of D147H, the Tm was 59.5 °C and the “change of melting temperature, mutant” value was 8.5 °C.
With D147L, the midpoint of thermal melting (Tm) turned out to be 65 °C and the “change of melting temperature, mutant” value stood at 14 °C.
Consider D147M, for which the Tm was determined as 66 °C and the “change of melting temperature, mutant” value was determined as 15 °C.
Turning to A296R, the Tm amounted to 50.5 °C and the “change of melting temperature, mutant” value was -0.5 °C.
On the same counts, the results for A296H are 50 °C and -1 °C.
For the variant G176A, the Tm stood at 51.5 °C and the “change of melting temperature, mutant” value was 0.5 °C.
On the same counts, the results for G176N are 51 °C and 0 °C.
Consider E233T, for which the Tm worked out at 51.5 °C and the “change of melting temperature, mutant” value is 0.5 °C.
In the case of E233S, the Tm worked out at 51.5 °C and the “change of melting temperature, mutant” value worked out at 0.5 °C.
As to E233H, the Tm came out at 51.5 °C and the “change of melting temperature, mutant” value was determined as 0.5 °C.
Taken in the same sequence, the figures for E233Q were 51.5 °C and 0.5 °C.
As to E78H, the Tm is 51 °C and the “change of melting temperature, mutant” value was 0 °C.
Take E139K: the Tm was determined as 58.5 °C and the “change of melting temperature, mutant” value is 7.5 °C.
Take E139H: the Tm was determined as 61.5 °C and the “change of melting temperature, mutant” value was 10.5 °C.
Taken in the same sequence, the figures for E139T were 60.5 °C and 9.5 °C.
On the same counts, the results for E139Q are 58.5 °C and 7.5 °C.
As to V106L, the Tm was found to be 50.5 °C and the “change of melting temperature, mutant” value was -0.5 °C.
Turning to A53K, the Tm was found to be 51 °C and the “change of melting temperature, mutant” value came out at 0 °C.
Turning to A53L, the Tm came to 52 °C and the “change of melting temperature, mutant” value was found to be 1 °C.
In the case of A83N, the Tm turned out to be 50 °C and the “change of melting temperature, mutant” value is -1 °C.
With A83L, the Tm came out at 51.5 °C and the “change of melting temperature, mutant” value amounted to 0.5 °C.
Take R86L: the Tm came out at 49 °C and the “change of melting temperature, mutant” value is -2 °C.
With D166N, the Tm is 53 °C and the “change of melting temperature, mutant” value is 2 °C.
For D166K, the Tm came to 53.5 °C and the “change of melting temperature, mutant” value came out at 2.5 °C.
Consider A81K, for which the Tm amounted to 52 °C and the “change of melting temperature, mutant” value came to 1 °C.
On the same counts, the results for A81N are 51 °C and 0 °C.
Regarding A81P, the Tm came out at 48 °C and the “change of melting temperature, mutant” value was -3 °C.
Consider A81E, for which the Tm is 48 °C and the “change of melting temperature, mutant” value is -3 °C.
On to I48C G283C, for which the Tm was determined as 49 °C and the “change of melting temperature, mutant” value was -2 °C.
V268C S278C: the Tm was 48.5 °C and 46 °C; the “change of melting temperature, mutant” value was -2.5 °C and -3 °C.
On to D97K, for which the melting temperature (Tm) was found to be 50.5 °C and the “change of melting temperature, mutant” value was -0.5 °C.
For the variant D97R, the Tm came out at 51 °C and the “change of melting temperature, mutant” value came to 0 °C.
D97N: the Tm turned out to be 50 °C and the “change of melting temperature, mutant” value was -1 °C.
Q152L: the melting temperature (Tm) worked out at 61.5 °C and the “change of melting temperature, mutant” value was 10.5 °C.
As for E123S, the Tm was 51 °C and the “change of melting temperature, mutant” value came out at 0 °C.
Take S42C A60C: the Tm turned out to be 47.5 °C and the “change of melting temperature, mutant” value was -1.5 °C.
On to Q275P, for which the Tm is 48 °C and the “change of melting temperature, mutant” value was -3 °C.
In the case of A153K, the Tm turned out to be 61 °C and the “change of melting temperature, mutant” value was determined as 10 °C.
Turning to H51C G283C, the Tm is 48.5 °C and 46 °C; the “change of melting temperature, mutant” value was -2.5 °C and -3 °C.
For D255Q, the Tm was determined as 50.5 °C and the “change of melting temperature, mutant” value is -0.5 °C.
As to D255K, the Tm was found to be 50.5 °C and the “change of melting temperature, mutant” value was -0.5 °C.
With D255A, the Tm is 51.5 °C and the “change of melting temperature, mutant” value turned out to be 0.5 °C.
With D87K, the Tm stood at 50 °C and the “change of melting temperature, mutant” value is -1 °C.
On the same counts, the results for D87L are 51.5 °C and 0.5 °C.
For the variant D219Q, the Tm stood at 50 °C and the “change of melting temperature, mutant” value was -1 °C.
Turning to D100T, the Tm came to 51 °C and the “change of melting temperature, mutant” value stood at 0 °C.
Regarding V220M, the Tm was 61 °C and the “change of melting temperature, mutant” value stood at 10 °C.
As to S75C R79C, the midpoint of thermal melting (Tm) was 45.5 °C and 44 °C; the “change of melting temperature, mutant” value is -5.5 °C and -5 °C.
A247F: the Tm is 67.5 °C and the “change of melting temperature, mutant” value turned out to be 16.5 °C.
For the variant S183C E186C, the Tm worked out at 47 °C and the “change of melting temperature, mutant” value is -4 °C.
Taken in the same sequence, the figures for R225L were 51.5 °C and 0.5 °C.
Taken in the same sequence, the figures for C257A were 48.5 °C and -2.5 °C.
As for S75C E199C, the Tm is 48.5 °C and the “change of melting temperature, mutant” value is -2.5 °C.
Regarding V105I, the Tm was 50 °C and the “change of melting temperature, mutant” value is -1 °C.
Consider A218P, for which the Tm came to 51.5 °C and the “change of melting temperature, mutant” value was determined as 0.5 °C.
For the variant A218E, the Tm was determined as 51 °C and the “change of melting temperature, mutant” value was found to be 0 °C.
Turning to A189F, the Tm came out at 51.5 °C and the “change of melting temperature, mutant” value amounted to 0.5 °C.
As to A189Y, the Tm was 51.5 °C and the “change of melting temperature, mutant” value was determined as 0.5 °C.
